Measured values published in US20190282673A1, “STAPHTAME ACTIVITY ON BIOFILMS” (priority 2016, published 2019).
Values joined by “and” are separate entries in the source; they are usually repeats but may differ in a detail not shown here. Equal entries are not always repeated.

Legend:
[1] = tested on: S. epidermidis; test: MIC and checkerboard synergy (broth microdilution) on planktonic cells; format: cell-based, Staphylococcus epidermidis
Experimental: Bacterial cultures at a final cell number of 5×10^5 CFU/mL was added to wells of 96-well microtiter plates (precoated with 0.5% BSA), containing two-fold dilutions of P128 and the second drug in cation adjusted Mueller Hinton Broth (CAMHB). The plates were incubated at 37° C. for 24 h and the individual MICs and the combination MICs were read. The fractional inhibitory concentration index (FICI) was determined using the following equation: FICI=(MIC of drug A in the combination/MIC of drug A alone)+(MIC of drug B in the combination/MIC of drug B alone). The combination was considered to be synergistic when the FICI was ≤0.5; additive when FICI was 0.5-1.0; indifferent when FICI was 1-4 and antagonistic when FICI≥4.
S. epidermidis culture at a final cell number of 5×10^5 CFU/mL was added to wells of 96-well microtiter plates (precoated with 0.5% BSA), containing two-fold dilutions of P128 and either Daptomycin or Oxacillin in cation adjusted Mueller Hinton Broth (CAMHB). CAMHB was supplemented with 50 µg/mL Ca^++ for daptomycin assay. The plates were incubated at 37° C. for 24 h and the individual MICs and the combination MICs were read. The fractional inhibitory concentration index (FICI) was determined using the following equation: FICI=(MIC of drug A in the combination/MIC of drug A alone)+(MIC of drug B in the combination/MIC of drug B alone). The combination was considered to be synergistic when the FICI was ≤0.5; additive when FICI was between 0.5-1.0; indifferent when FICI was between 1-4 and antagonistic when FICI was ≥4. The experiments were performed in triplicate and repeated twice.

[2] = tested on: MRSA MW2 biofilm on catheter; test: In vivo biofilm on catheter implanted subcutaneously in neutropenic mice
Experimental: Eight-nine week old female BALB/c mice 25 g were rendered neutropenic with cyclophosphamide and were operated under ketamine-xylazine anesthesia. A 1-cm incision was made in the dorsal neck surface by aseptic technique and subcutaneous pouch was created. Catheter segments of 1 cm length pre-incubated with MRSA MW2 suspension (6×10^3 CFUs/mL) for 4 hrs, were placed in the subcutaneous space and the wounds were closed with suture thereafter. As uninfected control, one group of mice were surgically operated and a sterile catheter segment was placed in the cavity. At 24 hours post-catheter implantation, mice were treated with P128 (800 μg per animal, subcutaneously) or with the placebo (saline). Treatments were given thrice a day at 2 hr intervals for three days and 1 hr after the last treatment, the catheters were removed, biofilms were harvested and CFUs recovered were plated on culture media and enumerated. Catheters from a subset of animals were stained with 0.1% safranin, (which stains the bacteria) for 5 min.
For evaluation of synergy with daptomycin, mouse model of biofilm described above was used with few modifications. Eight-nine week old female BALB/c mice 25 g were rendered neutropenic with cyclophosphamide and were operated under ketamine-xylazine anesthesia. A 1-cm incision was made in the dorsal neck surface by aseptic technique and subcutaneous pouch was created. Catheter segments measuring 1 cm were placed in the subcutaneous space, and the wounds closed with suture. At 72 hours post-implantation. MRSA MW2 bacterial inoculum (2.1×10^7 CFU per animal) was injected subcutaneously onto the catheter. At 24 hrs post-challenge, animals were treated with either P128 (800 μg per animal, subcutaneous), or daptomycin (12.5 mg/kg, subcutaneous) or a combination of both. Daptomycin was given once every day for three days whereas P128 was administered thrice a day at 2 hr interval for three days. 1 hr after the last treatment, animals were euthanized and catheters were collected and recovered CFUs were enumerated.
Biofilms were also visualized by staining the catheters with 0.1% safranin.

[3] = tested on: S. epidermidis B9470 biofilms on catheters; test: Preformed biofilms on catheters, safranin staining and SEM; format: cell-based, Staphylococcus epidermidis; settings: 18 hrs; P128 8 μg/mL (1×MIC); vancomycin 30 μg/mL (30×MIC)
Experimental: In order to simulate the in vivo conditions for biofilm formation in device associated infections, S. epidermidis B9470 was allowed to form biofilms on the surface of catheters. An overnight-grown culture was diluted 1:40 in TSB containing 4% sodium chloride. Catheter (JMS Infusion set) pieces of 1-2 cm size were cut, slit into two halves and added to the culture. The cultures with catheter pieces were incubated at 37° C. with shaking at 100 rpm for 42 h. Post incubation, the catheters were removed and rinsed twice in PBS to remove the adhering planktonic cells. The biofilms on catheters were challenged with 8 μg/mL of P128 or 30 μg/mL of vancomycin by transferring the catheter pieces into tubes containing the drugs. The tubes were incubated at 37° C. under static conditions for 18 hrs. The catheters were then removed from the tubes, rinsed once in PBS, and immersed in 0.1% safranin [a dye that stains cell wall of bacteria] for 5 min. The stained catheters were washed once in PBS and allowed to dry. After drying, samples were fixed on aluminum stubs with double sided carbon adhesive tape, coated with 5-7 nm thickness gold using a sputter-coating system (Quorum Technologies; Q150T) and examined by SEM (Carl Zeiss. Neon 40) for the presence of biofilm structures.

[4] = tested on: S. aureus USA300; test: Mouse model of S. aureus with mucin-enhanced virulence, survival; format: in vivo, BALB/c mice; settings: S. aureus USA300 10^9 CFU ip, P128 […] ip, Vancomycin 27.5 mg/kg sc 2 doses, or both
Experimental: Eight to nine weeks old female BALB/c mice were challenged intraperitoneally with 10^9 CFU of S. aureus USA300. At 2 hours post-infection, animals were treated with either P128 at 2.5 mg/kg intraperitoneally, or vancomycin at 27.5 mg/kg subcutaneously, or combination of both. Groups treated with only vancomycin or combination of P128 and vancomycin were administered with a second dose of vancomycin at 12 hours after the first treatment. At 72 hours post-infection, P128 and vancomycin yielded 56 and 44% survival, respectively.

[5] = P128 800 μg per animal sc, thrice a day for three days
[6] = Table VB1: pre-colonised catheter, P128 800 μg per dose sc, 3 doses/day for 3 days

B1: P128: anti-staphylococcal chimeric protein: phage tail associated muralytic enzyme (TAME) cell wall-degrading region plus staphylococcus-specific binding region; SEQ ID NO: 1 (protein)
chain: MSLDSLKKYNGKLPKHDPSFVQPGNRHYKYQCTWYAYNRRGQLGIPVPLWGDAADWIGGAKGAGYGVGRTPKQGACVIWQRGVQGGSPQYGHVAFVEKVLDGGKKIFISEHNYATPNGYGTRTIDMSSAIGKNAQFIYDKKLETPNTGWKTNKYGTLYKSESASFTPNTDIITRTTGPFRSMPQSGVLKAGQTIHYDEVMKQDGHVWVGYTGNSGQRIYLPVRTWNKSTNTLGVLWGTIK
modifications: P128 chimera
- MIC (drug alone) ([1]; S. epidermidis ATCC 12228): 4 µg/mL
- MIC (drug alone) ([1]; S. epidermidis B9467): 32 µg/mL
- MIC (drug alone) ([1]; S. epidermidis B9468): 2 µg/mL
- MIC (drug alone) ([1]; S. epidermidis B9470): 8 µg/mL
- MIC (drug alone) ([1]; S. epidermidis B9472): 16 µg/mL and 8 µg/mL
- MIC (drug alone) ([1]; S. epidermidis B9473): 16 µg/mL
- MIC over the strains ([1]; S. epidermidis strains of Tables 7 and 8): 2 to 32 µg/mL
- Reduction in CFUs compared to the control group [2, 5]: greater than 1 log
- Safranin staining of catheters [2, 5]: eradication of biofilm
- Avg. CFU recovered from catheter biofilm [2, 6]: 2.8 CFU Log(10)/ml
- CFU recovered from catheter biofilm, individual animals [2, 6]: 4.15 CFU (Log10)/ml and 3.12 CFU (Log10)/ml and 1.00 CFU (Log10)/ml and Nil
- CFU recovered from catheter biofilm, individual animals ([2]; Table VB2: Daptomycin 12.5 mg/kg sc 1 dose per day for 3 days, P128 800 μg per dose sc 3 doses/day for 3 days, or both): 2.5 CFU (Log10)/ml and 2.0 CFU (Log10)/ml and 2.7 CFU (Log10)/ml
- Effect on catheter biofilm (safranin/SEM) [3]: eradication of the biofilm
- Survival at 72 h post infection [4]: 56%
